In one test the target is T1, Gre2p (Saccharomyces cerevisiae, UniProt Q12068).
T1 construct: gene GRE2; wild-type Gre2p without loop insertion, pET28-Gre2p synthetic codon-optimised gene, expressed in E. coli BL21 DE3 RIPL, Ni-NTA purified
T1 sequence (Q12068 1-342): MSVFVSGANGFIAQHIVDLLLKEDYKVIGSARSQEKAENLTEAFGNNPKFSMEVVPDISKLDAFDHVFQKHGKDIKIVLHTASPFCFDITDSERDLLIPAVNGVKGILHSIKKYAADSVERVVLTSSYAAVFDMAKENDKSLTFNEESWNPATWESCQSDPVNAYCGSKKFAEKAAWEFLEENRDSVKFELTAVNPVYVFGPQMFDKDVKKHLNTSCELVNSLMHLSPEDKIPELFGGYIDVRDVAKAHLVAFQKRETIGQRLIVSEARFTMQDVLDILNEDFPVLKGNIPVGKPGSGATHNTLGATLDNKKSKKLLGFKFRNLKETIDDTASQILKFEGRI
As to the kind of experiment: NADPH oxidation, absorbance at […] nm. In kind it is biochemical. The following applies: 1.5 mM isovaleraldehyde; 0.25 mM NADPH; 100 mM potassium phosphate pH 7.4; 25 °C.

Test [1] has as its target HaloTag7SS-DogTag (Streptococcus pneumoniae TIGR4). As to the kind of experiment: isopeptide bond formation followed by SDS-PAGE with Coomassie densitometry; reaction toward completion: 10 or 20 μM DogCatcher with 10 or 20 μM HaloTag7SS-DogTag, PBS pH 7.5, 25°C, 200 min.
Test [2] has as its target Gre2p-DogTag Loop B (Saccharomyces cerevisiae | Streptococcus pneumoniae TIGR4) (UniProt Q12068). As to the kind of experiment: isopeptide bond formation followed by SDS-PAGE with Coomassie densitometry; 5 μM of each protein in solution, PBS pH 7.5 (pH 7.4 in p-0004), 25°C; second-order rate constant from 1/[Catcher] against time.
Test [3] deals with AviTag-DogTag-MBP (Streptococcus pneumoniae TIGR4). The test is described as above.
Test [4] has as its target sfGFP-DogTag Loop A (Streptococcus pneumoniae TIGR4). The description is as above.
The target in test [5] is AviTag-R2Tag-MBP (Streptococcus pneumoniae TIGR4). Described as above.
Another test concerns the target sfGFP-SpyTag003 Loop A. The description is as above.
The target in test [6] is Gre2p-SpyTag003 Loop B (Saccharomyces cerevisiae) (UniProt Q12068). The test is described as above.

Turning to `NC(=O)C1=CN([C@@H]2O[C@H](COP(=O)(O)OP(=O)(O)OC[C@H]3O[C@@H](n4cnc5c(N)ncnc54)[C@H](OP(=O)(O)O)[C@@H]3O)[C@@H](O)[C@H]2O)C=CC1` [NADPH], on Gre2p, the “NADPH oxidation, absorbance at 340 nm” value is “Reduction of isovaleraldehyde to isoamyl alcohol by Gre2p is nicotinamide adenine dinucleotide phosphate (NADPH) dependent”.

In test [1], DogCatcher (designed binder) registered a percent of DogCatcher reacted (2-fold excess of HaloTag7SS-DogTag) of 98%. In test [1], this compound came in with a percent of HaloTag7SS-DogTag reacted (2-fold excess of DogCatcher) of 98%. Also, the second-order rate constant of covalent reaction in test [2] is 850 M⁻¹ s⁻¹; in test [3], 760 M⁻¹ s⁻¹; in test [4] it was 1000 M⁻¹ s⁻¹.

R2Catcher (domain or fragment): the second-order rate constant of covalent reaction in test [5] was determined as 3 M⁻¹ s⁻¹; in test [3] it was 30 M⁻¹ s⁻¹.

In the case of SpyCatcher003 (designed binder), the second-order rate constant of covalent reaction in the test with sfGFP-SpyTag003 Loop A came out at 87 M⁻¹ s⁻¹; in test [6], 156 M⁻¹ s⁻¹.

For the origin of these results see article PMC8878318, “DogCatcher allows loop-friendly protein-protein ligation” (Cell Chemical Biology, 2022).
